Test results taken from the DeepSol protein solubility set.

Assay: soluble on expression in E. coli; label from the status in PepcDB or PDB records

| Sequence | soluble on expression in E. coli |
| --- | --- |
| MAMHPRAGQKARQEDLHNIPALVANYYLLQPEAGNTAHKVEFGTSGHRGTADKTTFNEHHILAIAQAVADVRHEHGVTGPIFIGKDTHALSEPAFSSVLEVLIANGIEVIVQENNGYTPTPGISHAILTYNLKHADKADGIVITPSHNPPQDGGIKYNPPHGGPAEGELTQAIEDRANAYISQQLAGVKRMPIALAKQSELLKQVDLVKPYVDDLVNVVDMAAIQKAKLKIGVDPLGGSGIDYWRQIGNAYQLDLTLVSEAIDPSFQFMSLDKDGVIRMDCSSPYAMAGLLALKDEYDLAFGNDPDYDRHGIVTPKGLMNPNHFLAVCIDYLYRHRQGWAGHVAVGKTLVSSAMIDKVVADLGRELCEVPVGFKWFVDGLYSGRFGFGGEESAGASFLRQDGTPWSTDKDGIILCLLAAEITAVTGKNPQQYYDELAAKHGDFYYSRIQAVANGPQKNVLKKLSPEMVSAQTLAGDAITARLTHAPGNGAAIGGLKVTTDYGWFAARPSGTEDIYKIYCESFKGAEHLKQIESEAQQIVNQVFKDAGL | not soluble |
| MIGIVAAFEKVKIPEMGKSFGTGWLPPLPSLKDYTEESAQIPEMAEKLGIPTSRKETKTLELPVSIDFRNWCSPIEDQMDLGSCTAHAGVGVVEYFERRAFGKHIDGSRFFVYKTTRNLMGVKGDTGAWLRNTMGALALCGVPPEKYFPYTSRKTPGPDGEPTFDDEPSSFVYSLADNFEALNYFCHDPQGMNLPPEDVILSVKKYLAAGIPSMFGFYGFPSFKDTDVKGGIPFPGPDERSIWGHAVVAVGYDDNMKIRNTLSNKETTGAFLIRNSWGTAWGDKGYGWLPYEYALNKLEHHHHHH | not soluble |
| GFTVALIQGDGIGPEIVSKSKRILAKINELYSLPIEYIEVEAGDRALARYGEALPKDSLKIIDKADIILKGPVGESAADVVVKLRQIYDMYANIRPAKSIPGIDTKYGNVDILIVRENTEDLYKGFEHIVSDGVAVGMKIITRFASERIAKVGLNFALRRRKKVTCVHKANVMRITDGLFAEACRSVLKGKVEYSEMYVDAAAANLVRNPQMFDVIVTENVYGDILSDEASQIAGSLGIAPSANIGDKKALFEPVHGAAFDIAGKNIGNPTAFLLSVSMMYERMYELSNDDRYIKASRALENAIYLVYKERKALTPDVGGNATTDDLINEIYNKLG | soluble |
| MGSDKIHHHHHHMTKLMPKFEQHRTDFAYCQTITKRSSSAFYTAFSQLPLERAWSIYAVYAFCRTADDLVDVDHDIDGLMALRQSLTTFANGHVPDHPMWRALAVVFETYDMNLDVFFDMLTGQEQDATFKQPQTQQALEDYCYYVAGSVGLMILPMLATNPQSLVKPAVELGSAMQLTNILRDVGEDYQRGRIYLPSKLLAHYQLNPTDLHGPIPSANFIRLWEHEAQIAMNKYEAALTMMPQIDPVARPSLLAATLLYRELLLIAREQHYPILSQRVFLTDERKTQVLNQVSTKVHELALKEA | not soluble |
| GSMIRSTLSSWREYLTPITHKSTFLTTGQITPEEFVQAGDYLCHMFPTWKWNEESSDISYRDFLPKNKQFLIIRKVPCDKRAEQCVEVEGPDVIMKGFAEDGDEDDVLEYIGSETEHVQSTPAGGTKDSSIDDIDELIQDMEIKEEDENDDTEEFNAKGGLAKDMAQERYYDLYIAYSTSYRVPKMYIVGFNSNGSPLSPEQMFEDISADYRTKTATIEKLPFYKNSVLSVSIHPCKHANVMKILLDKVRVVRQRRRKELQEEQELDGVGDWEDLQDDIDDSLRVDQYLIVFLKFITSVTPSIQHDYTMEGW | soluble |
| MLTEKTKKELIRLSKVNNYIIKVETNQNFKHQSKCGDQILFQIIETNNGKFNLKHHASGCIVLLASANALNKLCNNKAKSEILNLVQKVINSNFANLDEIDVSLKIFNVFTNTNRKDCFLLPYKSLKDSLESYKPLRRTIRLEHHHHHH | not soluble |
| MHFTPALKPGKLLKRYKRFLADVQLEDGSEITVHCPNTGSMRNCLFPGETLWFSTSSNTKRKYAHTWELMTTPTGALIGIHSGNANALVEEALNKGIITELTGYDSLRREVKYGDENSRIDILLECAQKTACYIEVKSCTLQENGQGYFPDAVSLRGQKHLRELMHMASLGHRAVLLFVVQHTDIMSVAPAAHIDPEYANLLKKSVLSGVEVLAYRCEISPSEIHLAQSCPVRV | soluble |
| MGSDKIHHHHHHMIAQVEPFHAIAISRLAHDLEAAGQSVIHMEFGQPSTGAPAEAIALAHEVLDNEAMGYWESVPLKERIARSYAENHGVKVEREQVILTCGASPAFVMALSCLFRPGARIALARPGYVAYRNSLKAMYLEPVEMECGPAERFQVTAAAVDALDPVPDGLIVASPANPTGTIIEPGELAAIAEVCCRKGIRVISDEIYHGLSYGKAAASMLEYLPDAVIVNSFSKYFSMAGWRLGWLVVPPSLIDAARARMGSLFLTPPVLAQKAGLKAFDCRAELDGHVETYARNRAILLEALPQMGLGRIAPPDGAFYIYADASEFTDDSLALCEALLRDTGVATAPGLDFDPVNGKRFIRFSFAVSTPLIEEAVRRIGPWFAARRAVSPAQAPS | not soluble |
| MFTHLDENQQPRMVDISQKVAGDRRAVAQCIVQLPKAIKDYLTGQEIFLKKGPVIQTAIIAGTMAVKKTADLIPFCHTLPIHGCKFDINIVYQKRDYLEIFLQCAVNTNYKTGVEMEALCGVSVAALTIYDMCKSISSEIIIKNTKLIEKTGGKADVSQTPLYGLVLTGGKSRRMGKDKALINYQGQPHGQYIYDLLAKYCEQVFLSARPSQWQGTPLENLPTLVDRGESVGPMSGILTALQSYPGVNWLIIACDLAYINSTMVEKLIAQARQDLVATCYENADQGFPEALCGFYTPLALQLFTKAQNIGLHCPVKILQMADCQLIKPDNLFDIANINSPEDYGQINLEHHHHHH | not soluble |
| GPGSMPNEKAQTLTVAEAFAETSKALQQFNIERIRVDGLSRGNACDEEKFRMLTEQEFMREFVFHSRPCIIVGALCDWPALQRWRDDRYLFDLDEKLPMVYEKERTSKGNGEINENDSFHEDEEIVTESDAEDSKNGTSNNEAESQGTLGPRRVTVALTPNGRADAVTYVTYNAVKNESQVHDKLEGKSDFVVTEKLFMSAAELRVTLPELYRLLRANPLVPPLKSQFVDLRRPQRSIAYAQMQNNCLAEEYQHLHADIDTALDRFGTRVFGGKREAANIWLGTPASVSSMHQDWVENLYAVVRGVKEFILVPPWEGVFVPKPELPAAAFTLKAAANCKEGEEEYIFSDSPTRDGTSVPWMDVELTPAAVDDPLHIKEELRDKLHPLIAYVQPGEVLYLPALWLHRVAQHADSEDSRVIEEASTEEIAKVSRHDQKHSAPLPLIAAVNYWYDMSFTNPAVVMLREFGLLL | not soluble |
| TIDAQLQKRAEQAFGDQAGAAVVMEVNTGEILAFVSNPEFDPALFAGRMPPEIWKQYLEDKRHPLENKALKGQYPPGSTYKIITALAGLEEGIIDDHTTVTCKGSYALGNTTFRCWDKKGHGAVDLRRALRESCDVYFYVLGEKLGIDRLSAYAQKFALGAPMGVGLDNEKGGLIPTSAWKLQRHKTRWFQGDTLSAAIGQGYVLMTPIQLASMTAAIATDGIVYRPRLVKRIIDRDGKVLREFQPEIITRADISPRSFKSVKEGLWAVVNESGGTGGMSRIPDVRVAGKTGTSQVVKLRDTRGFIPYQYRDHALFVAYAPYEHPEVAVAVVIEHGEHGGSAAAPIAGSILRAYFEGKGVIRR | not soluble |
| MSLKLRGHHLICLQFFRGEGYSGEFVENVKKIMERLESGETVEVVAGVDDICVACPYNRGYCGKDETSEERVREMDKAAVRLLGVSEKTTWREVAERIEKVLNEWRVFCEDCDWKEVCYGEGHHHHHH | soluble |
| MVHVSGTKVKVVKKKLTKFKRHESDRYRRVAPSWRKPKGIDNRVRRRFRGMRAMPTIGHGSDRRTRFVLPNGYKKVLVQNVKDLDMLLMQSYKYIGEIGHGVSAKSRKGIVERAAQLNIKLTNGNARLRTEESE | not soluble |
| MGSDKIHHHHHHMSTLLRQHAEQQFAEELHELKQNETNPVPENWEMSPQSVVTYLMGGKLKNGFEVSPKYIGNRRLMEIAVATLVTDRALLLYGLPGTAKSWVSEHIAAAISGDSTLIVQGTAGTGEEAIRYGWNYARLLAEGPSVGALVQTPVMKAMQEGKIGRIEELTRIGSDVQDTLITILSEKTLPIPELNTEVQAIRGFNIIATANNRDKGVNDLSSALKRRFNTVILPLPDSIDEEIDIVRRRVESFEKVMQLPAEKPALEEIRRVVTIFRELRQGATADGKTKLKTPSGTLSTAEAISVVNNGLAMAGYFGDGEIHAEDLVSGILGAVVKDPVQDKVVWQEYMETVVKNRDGWKDIYRASRDMI | not soluble |
| MGSDKIHHHHHHMNLNIAICDDDTNDIAIMKKNILQYTIETDNNIVVSSYFSASDILSDYKNHLYQIVLLDIEMPDINGMELARQLRDMDDDLLIIFTTSYPEYMHESFEVQPFQFITKPVDYTAIYKLFNNIIKKLYRNSKSIVIIDTDGEKNFVPLSDLLYISSMKENKLHLRYQLTDRALISKGTLSEAEKRLSSHGFVSPSRGFLVNLHQIRSITSTRLLLNNGFELPISRRRSKELQNIYSQHIINIL | not soluble |
| MREIVHVQAGQCGNQIGAKFWEVISDEHGIQPDGTYKGESDLQLERINVYYNEANGGKYVPRAVLVDLEPGTMDSVRSGPFGQLFRPDNFVFGQSGAGNNWAKGHYTEGAELVDNVLDVVRKEAEGCDCLQGFQLTHSLGGGTGSGMGTLLISKIREEYPDRIMSSFSVVPSPKVSDTVVEPYNATLSVHQLVENTDETFCIDNEALYDICFRTLKLSNPTYGDLNHLVSVTMSGVTTCLRFPGQLNADLRKLAVNMVPFPRLHFFMPGFAPLSAKGAQAYRALTVAELTQQMFDAKNMMAACDPRHGRYLTVAAMFRGRMSMREVDDQMMNVQNKNSSYFVEWIPNNVKTAVCDIPPRGLKMSATFIGNSTAIQELFKRISEQFTAMFRRKAFLHWYTGEGMDEMEFTEAESNMNDLVSEYQQYQEATAEEDGELDGTDGDAE | not soluble |
| MAAQQPLSQEQLLHFWGAHNTMGKMTRRTSQSDGGKPSGNSNAAGGAGTKPKVATPQVVAKIEQYKRDNPTIFAWEIREKLISEDVCTTPPSVSSINRILRTRAAERAAEELQMILSAQHLARPRAQQVRLPPAFPFPFPLVWPGLLPNPAQLSLLLNSGALAPPVQSGGAGGPGVFGNSGQISVDSNLNLSEDDSTLGANARRLSRSTFTNEQLQSLEEVFLRDPYPSPNERADLVKRTNLPEARIQVWFSNRRAKWRKTNANGSDRDELRAERSETDDALSISSQSPSPGGGQETGSDEGKKKTITLFKPYE | not soluble |
| MSKLCKEFSLSATVKNMSRFVDGEEYYTDTEERFNIPWRMFIRKDSGYFDLGLVCEKDSWENREWSIETDYKMKFVSHNGDSLTDSEHFTFENSNKSDVCLMKPWDLLESDYVVDDSIVVEAYVKIIKMTDTPCDEDENIETFLLSNTVKNISSIEEGDDYYTEIATRHNVPWRMQIKRNNGFFELYLRCEKEEQPEWGWKIELDYDLRLVSLNGQSLSLTDSGSFSKPFCEGFEKFMRWNIMEENYIVKDSIIIEARGKITKMIGCDDDSSSDDGEDESSKSHSESDTSSDNLEDEFSECVINVGGQN | not soluble |
| MTATLDDARAALDRIADPASGQGLVKAGLVQGLVVRNGRAGFMLEVPASVVASYAPVREAAEKALAALPGVEQAQVVLTAQAAEGATRVRKGAKISEDPQARMVPPPEAEKPQHVRHVIAVASGKGGVGKSTVSTNLAVAFAKMGLRVGLLDADIYGPSAPKMMGVDGDPLFENEKLQPLEAHGVKLMSIGFIVDEGKAMIWRGPMASSAVRQMIHDVAWGSEAQPLDVLVVDLPPGTGDVQLTLVQKLRIDGAVLVTTPQEIALIDARRAAAMFEKTATPILGLIENMAFFADPSTGAPIPIFGEGGGVAEAARLNVPLLGRVPIEIAVRLGGDQGVPAVIGEPKGQAAEVFIGAAKVLWKSVSHLEHHHHHH | soluble |
